{
  "source": "paper PMC2978097",
  "about": "(2010)",
  "molecular_target": "α-synuclein (Homo sapiens, UniProt P37840)",
  "assay": "fluorescence anisotropy",
  "data": [
    {"binder": "GVLWVGSKTR", "note": "[Y39W β-syn 36D]", "values": [
      {"measurement": "Kd", "result": "~1000", "unit": "nM"}
    ]}
  ]
}
